Source: the Human Domainome abundance scans (Beltran et al. 2025)
± gives the uncertainty stated by the source.

B1: POU domain, class 4, transcription factor 1, residues 266 to 347; numbered along this chain, Q01851 (parent)
chain: RELEAFAERFKQRRIKLGVTQADVGSALANLKIPGVGSLSQSTICRFESLTLSHNNMIALKPILQAWLEEAEGAQREKMNKP

Variants of: B1
Assay: abundance fitness (aPCA) (normalised: wild type 0, dead -1); higher = more abundant; growth selection in yeast, the domain comes from the species named
Details: Homo sapiens

Variant	abundance fitness
RELEAFAERFKQRRIKLGVTQADVGSALANLKIPGVGALSQSTICRFESLTLSHNNMIALKPILQAWLEEAEGAQREKMNKP	-0.18 ± 0.27
RELEAFAERFKQRRIKLGVTQADVGSALANLKIPGVGCLSQSTICRFESLTLSHNNMIALKPILQAWLEEAEGAQREKMNKP	-0.222 ± 0.16
RELEAFAERFKQRRIKLGVTQADVGSALANLKIPGVGFLSQSTICRFESLTLSHNNMIALKPILQAWLEEAEGAQREKMNKP	0.147 ± 0.18
RELEAFAERFKQRRIKLGVTQADVGSALANLKIPGVGVLSQSTICRFESLTLSHNNMIALKPILQAWLEEAEGAQREKMNKP	0.05 ± 0.2
RELEAFAERFKQRRIKLGVTQADVGSALANLKIPGVGLLSQSTICRFESLTLSHNNMIALKPILQAWLEEAEGAQREKMNKP	-0.11 ± 0.11
RELEAFAERFKQRRIKLGVTQADVGSALANLKIPGVGRLSQSTICRFESLTLSHNNMIALKPILQAWLEEAEGAQREKMNKP	0.048 ± 0.096
RELEAFAERFKQRRIKLGVTQADVGSALANLKIPGVGWLSQSTICRFESLTLSHNNMIALKPILQAWLEEAEGAQREKMNKP	-0.095 ± 0.14
RELEAFAERFKQRRIKLGVTQADVGSALANLKIPGVGELSQSTICRFESLTLSHNNMIALKPILQAWLEEAEGAQREKMNKP	0.016 ± 0.083
RELEAFAERFKQRRIKLGVTQADVGSALANLKIPGVGGLSQSTICRFESLTLSHNNMIALKPILQAWLEEAEGAQREKMNKP	-0.203 ± 0.13
RELEAFAERFKQRRIKLGVTQADVGSALANLKIPGVGHLSQSTICRFESLTLSHNNMIALKPILQAWLEEAEGAQREKMNKP	0.047 ± 0.38
RELEAFAERFKQRRIKLGVTQADVGSALANLKIPGVGPLSQSTICRFESLTLSHNNMIALKPILQAWLEEAEGAQREKMNKP	-0.112 ± 0.14
RELEAFAERFKQRRIKLGVTQADVGSALANLKIPGVGSLSVSTICRFESLTLSHNNMIALKPILQAWLEEAEGAQREKMNKP	-0.054 ± 0.04
RELEAFAERFKQRRIKLGVTQADVGSALANLKIPGVGSLSASTICRFESLTLSHNNMIALKPILQAWLEEAEGAQREKMNKP	0.053 ± 0.044
RELEAFAERFKQRRIKLGVTQADVGSALANLKIPGVGSLSISTICRFESLTLSHNNMIALKPILQAWLEEAEGAQREKMNKP	0.074 ± 0.14
RELEAFAERFKQRRIKLGVTQADVGSALANLKIPGVGSLSPSTICRFESLTLSHNNMIALKPILQAWLEEAEGAQREKMNKP	0.104 ± 0.091
RELEAFAERFKQRRIKLGVTQADVGSALANLKIPGVGSLSTSTICRFESLTLSHNNMIALKPILQAWLEEAEGAQREKMNKP	-0.055 ± 0.062
RELEAFAERFKQRRIKLGVTQADVGSALANLKIPGVGSLSNSTICRFESLTLSHNNMIALKPILQAWLEEAEGAQREKMNKP	-0.137 ± 0.13
RELEAFAERFKQRRIKLGVTQADVGSALANLKIPGVGSLSFSTICRFESLTLSHNNMIALKPILQAWLEEAEGAQREKMNKP	0.084 ± 0.095
RELEAFAERFKQRRIKLGVTQADVGSALANLKIPGVGSLSGSTICRFESLTLSHNNMIALKPILQAWLEEAEGAQREKMNKP	0.003 ± 0.034
RELEAFAERFKQRRIKLGVTQADVGSALANLKIPGVGSLSHSTICRFESLTLSHNNMIALKPILQAWLEEAEGAQREKMNKP	0.149 ± 0.11
RELEAFAERFKQRRIKLGVTQADVGSALANLKIPGVGSLSKSTICRFESLTLSHNNMIALKPILQAWLEEAEGAQREKMNKP	0 ± 0.066
RELEAFAERFKQRRIKLGVTQADVGSALANLKIPGVGSLSDSTICRFESLTLSHNNMIALKPILQAWLEEAEGAQREKMNKP	0.048 ± 0.084
RELEAFAERFKQRRIKLGVTQADVGSALANLKIPGVGSLSMSTICRFESLTLSHNNMIALKPILQAWLEEAEGAQREKMNKP	-0.074 ± 0.064

Variant	abundance fitness
RELEAFAERFKQRRIKLGVTQADVGSALANLKIPGVGSLSWSTICRFESLTLSHNNMIALKPILQAWLEEAEGAQREKMNKP	-0.074 ± 0.051
RELEAFAERFKQRRIKLGVTQADVGSALANLKIPGVGSLSESTICRFESLTLSHNNMIALKPILQAWLEEAEGAQREKMNKP	0.051 ± 0.039
RELEAFAERFKQRRIKLGVTQADVGSALANLKIPGVGSLVQSTICRFESLTLSHNNMIALKPILQAWLEEAEGAQREKMNKP	-0.331 ± 0.055
RELEAFAERFKQRRIKLGVTQADVGSALANLKIPGVGSLDQSTICRFESLTLSHNNMIALKPILQAWLEEAEGAQREKMNKP	0.042 ± 0.099
RELEAFAERFKQRRIKLGVTQADVGSALANLKIPGVGSLMQSTICRFESLTLSHNNMIALKPILQAWLEEAEGAQREKMNKP	-0.359 ± 0.096
RELEAFAERFKQRRIKLGVTQADVGSALANLKIPGVGSLAQSTICRFESLTLSHNNMIALKPILQAWLEEAEGAQREKMNKP	-0.129 ± 0.053
RELEAFAERFKQRRIKLGVTQADVGSALANLKIPGVGSLRQSTICRFESLTLSHNNMIALKPILQAWLEEAEGAQREKMNKP	-0.155 ± 0.041
RELEAFAERFKQRRIKLGVTQADVGSALANLKIPGVGSLFQSTICRFESLTLSHNNMIALKPILQAWLEEAEGAQREKMNKP	-0.263 ± 0.11
RELEAFAERFKQRRIKLGVTQADVGSALANLKIPGVGSLEQSTICRFESLTLSHNNMIALKPILQAWLEEAEGAQREKMNKP	-0.063 ± 0.051
RELEAFAERFKQRRIKLGVTQADVGSALANLKIPGVGSLKQSTICRFESLTLSHNNMIALKPILQAWLEEAEGAQREKMNKP	-0.079 ± 0.06
RELEAFAERFKQRRIKLGVTQADVGSALANLKIPGVGSLWQSTICRFESLTLSHNNMIALKPILQAWLEEAEGAQREKMNKP	-0.369 ± 0.076
RELEAFAERFKQRRIKLGVTQADVGSALANLKIPGVGSLYQSTICRFESLTLSHNNMIALKPILQAWLEEAEGAQREKMNKP	-0.307 ± 0.24
RELEAFAERFKQRRIKLGVTQADVGSALANLKIPGVGSLCQSTICRFESLTLSHNNMIALKPILQAWLEEAEGAQREKMNKP	-0.017 ± 0.057
RELEAFAERFKQRRIKLGVTQADVGSALANLKIPGVGSLGQSTICRFESLTLSHNNMIALKPILQAWLEEAEGAQREKMNKP	-0.058 ± 0.035
RELEAFAERFKQRRIKLGVTQADVGSALANLKIPGVGSLPQSTICRFESLTLSHNNMIALKPILQAWLEEAEGAQREKMNKP	-0.15 ± 0.066
RELEAFAERFKQRRIKLGVTQADVGSALANLKIPGVGSLHQSTICRFESLTLSHNNMIALKPILQAWLEEAEGAQREKMNKP	-0.159 ± 0.16
RELEAFAERFKQRRIKLGVTQADVGSALANLKIPGVGSLNQSTICRFESLTLSHNNMIALKPILQAWLEEAEGAQREKMNKP	-0.05 ± 0.1
RELEAFAERFKQRRIKLGVTQADVGSALANLKIPGVGSLQQSTICRFESLTLSHNNMIALKPILQAWLEEAEGAQREKMNKP	-0.072 ± 0.075
RELEAFAERFKQRRIKLGVTQADVGSALANLKIPGVGSLLQSTICRFESLTLSHNNMIALKPILQAWLEEAEGAQREKMNKP	-0.238 ± 0.052
RELEAFAERFKQRRIKLGVTQADVGSALANLKIPGVGSLIQSTICRFESLTLSHNNMIALKPILQAWLEEAEGAQREKMNKP	-0.202 ± 0.17
RELEAFAERFKQRRIKLGVTQADVGSALANLKIPGVVSLSQSTICRFESLTLSHNNMIALKPILQAWLEEAEGAQREKMNKP	-0.093 ± 0.028
RELEAFAERFKQRRIKLGVTQADVGSALANLKIPGVNSLSQSTICRFESLTLSHNNMIALKPILQAWLEEAEGAQREKMNKP	0.035 ± 0.079
RELEAFAERFKQRRIKLGVTQADVGSALANLKIPGVYSLSQSTICRFESLTLSHNNMIALKPILQAWLEEAEGAQREKMNKP	-0.054 ± 0.053

Variant	abundance fitness
RELEAFAERFKQRRIKLGVTQADVGSALANLKIPGVTSLSQSTICRFESLTLSHNNMIALKPILQAWLEEAEGAQREKMNKP	-0.076 ± 0.039
RELEAFAERFKQRRIKLGVTQADVGSALANLKIPGVSSLSQSTICRFESLTLSHNNMIALKPILQAWLEEAEGAQREKMNKP	-0.047 ± 0.032
RELEAFAERFKQRRIKLGVTQADVGSALANLKIPGVPSLSQSTICRFESLTLSHNNMIALKPILQAWLEEAEGAQREKMNKP	-0.016 ± 0.04
RELEAFAERFKQRRIKLGVTQADVGSALANLKIPGVRSLSQSTICRFESLTLSHNNMIALKPILQAWLEEAEGAQREKMNKP	-0.115 ± 0.025
RELEAFAERFKQRRIKLGVTQADVGSALANLKIPGVQSLSQSTICRFESLTLSHNNMIALKPILQAWLEEAEGAQREKMNKP	-0.121 ± 0.042
RELEAFAERFKQRRIKLGVTQADVGSALANLKIPGVWSLSQSTICRFESLTLSHNNMIALKPILQAWLEEAEGAQREKMNKP	-0.328 ± 0.036
RELEAFAERFKQRRIKLGVTQADVGSALANLKIPGVGSWSQSTICRFESLTLSHNNMIALKPILQAWLEEAEGAQREKMNKP	-0.169 ± 0.046
RELEAFAERFKQRRIKLGVTQADVGSALANLKIPGVGSDSQSTICRFESLTLSHNNMIALKPILQAWLEEAEGAQREKMNKP	-0.231 ± 0.09
RELEAFAERFKQRRIKLGVTQADVGSALANLKIPGVGSISQSTICRFESLTLSHNNMIALKPILQAWLEEAEGAQREKMNKP	0.042 ± 0.13
RELEAFAERFKQRRIKLGVTQADVGSALANLKIPGVGSPSQSTICRFESLTLSHNNMIALKPILQAWLEEAEGAQREKMNKP	-0.03 ± 0.072
RELEAFAERFKQRRIKLGVTQADVGSALANLKIPGVGSYSQSTICRFESLTLSHNNMIALKPILQAWLEEAEGAQREKMNKP	-0.277 ± 0.11
RELEAFAERFKQRRIKLGVTQADVGSALANLKIPGVGSKSQSTICRFESLTLSHNNMIALKPILQAWLEEAEGAQREKMNKP	-0.409 ± 0.08
RELEAFAERFKQRRIKLGVTQADVGSALANLKIPGVGSCSQSTICRFESLTLSHNNMIALKPILQAWLEEAEGAQREKMNKP	-0.096 ± 0.071
RELEAFAERFKQRRIKLGVTQADVGSALANLKIPGVGSHSQSTICRFESLTLSHNNMIALKPILQAWLEEAEGAQREKMNKP	-0.113 ± 0.26
RELEAFAERFKQRRIKLGVTQADVGSALANLKIPGVGSFSQSTICRFESLTLSHNNMIALKPILQAWLEEAEGAQREKMNKP	-0.211 ± 0.16
RELEAFAERFKQRRIKLGVTQADVGSALANLKIPGVGSRSQSTICRFESLTLSHNNMIALKPILQAWLEEAEGAQREKMNKP	-0.487 ± 0.044
RELEAFAERFKQRRIKLGVTQADVGSALANLKIPGVGSVSQSTICRFESLTLSHNNMIALKPILQAWLEEAEGAQREKMNKP	0.001 ± 0.037
RELEAFAERFKQRRIKLGVTQADVGSALANLKIPGVGSMSQSTICRFESLTLSHNNMIALKPILQAWLEEAEGAQREKMNKP	0.01 ± 0.059
RELEAFAERFKQRRIKLGVTQADVGSALANLKIPGVGSSSQSTICRFESLTLSHNNMIALKPILQAWLEEAEGAQREKMNKP	-0.33 ± 0.064
RELEAFAERFKQRRIKLGVTQADVGSALANLKIPGVGSQSQSTICRFESLTLSHNNMIALKPILQAWLEEAEGAQREKMNKP	-0.368 ± 0.085
RELEAFAERFKQRRIKLGVTQADVGSALANLKIPGVGSTSQSTICRFESLTLSHNNMIALKPILQAWLEEAEGAQREKMNKP	-0.138 ± 0.085
